The target in data set [1] is soluble recombinant variant of human uPAR (suPAR) (human) (UniProt Q03405). Kind of data set: SPR (Biacore), ligand over immobilised neuramimidase-treated human suPAR. Background: SPR reads the build-up and loss of mass on a sensor chip optically.
Data set [2] has as its target T1, neuramimidase-treated human suPAR (soluble recombinant uPAR) (Homo sapiens, UniProt Q03405).
T1 construct: A soluble recombinant variant of human uPAR (suPAR) was expressed in Chinese hamster ovary (dhfr) cells; made in house; host or cells: Chinese hamster ovary (dhfr) cells
The experiment in a line: Biacore Binding Assay (surface plasmon resonance), ligand binding to immobilised suPAR. To be noted: for kdiss (dissociation rate constant, off-rate): Biacore, 5° C., immobilised suPAR; for Relative kdiss: relative to the Growth Factor Domain of uPA (GFD = 1.0); for dissociation constant compared with other peptides: peptomer analogues; for human uPAR binding after introduction of spacing residues: spacer between D-arginine and L-tyrosine. The protocol: Association rate constants (kass), dissociation rate constants (kdiss) and equilibrium binding constants (kd) for various synthetic peptides and receptor binding derivatives of human uPA were determined by surface plasmon resonance (R. Karlsson et al. (1991) J. Immunol. Meths. 145:229–240) using a BIAcore2000™ instrument (Pharmacia Biosensor, Uppsala, Sweden). Due to the low isoelectric point of uPAR (pI≈4.5) terminal sialic acid residues were removed from its N-linked carbohydrates to facilitate chemical immobilisation on the sensor chip. This was accomplished by incubating purified suPAR (1 mg/ml in 50 mM phosphate, 150 mM NaCl, pH 7.4) with 5 μg/ml neuramimidase for 4 hours at 37° C. […] Coupling of the neuramimidase-treated suPAR to a BIAcore sensor chip was achieved by injection of 20 μg/ml suPAR in 10 mM sodium acetate pH 5.0 for 6 minutes at a flow rate of […] per minute using a carboxymethylated dextran matrix (CM5 sensor chip) preactivated with N-hydroxysuccinimide/N-ethyl-N′-[3-([…])propyl]carbodiimide according to the manufacturer's recommendations. Approximately 1,500–2,000 resonance units (RU) were immobilised by this procedure (corresponding to 1–2 ng suPAR/mrn^2).
Sensorgrams (RU versus time) were recorded (FIG. 2) at a flow rate of 10 μl per min at 5° C. using several different concentrations of the ligand (synthetic peptides, uPA, the amino-terminal fragment (ATF) of uPA, or the growth factor domain (GFD) of uPA) in the range of 10 to 1000 nM in running buffer (10 mM HEPES, 150 mM NaCl, 3 mM EDTA (pH 7.4) including 0.005% surfactant P-20). Stock solutions of peptides from combinatorial chemistry were made in DMSO (10 mg peptide/ml DMSO). The sensor chip was regenerated at the end of each run by injection of 0.1 M acetic acid, 0.5 M NaCl. Data obtained from parallel mock coupled flow cells (subjected to the coupling procedure in the presence of buffer only) served as blank sensorgrams for subtraction of changes in bulk refractive index. The sensorgrams obtained were analysed by non-linear least squares fitting using BIAevaluation 2.0 software (Pharmacia Biosensor, Uppsala, Sweden) assuming single-site association and dissociation models.
Purified human suPAR (1 mg/ml in 50 mM phosphate, 150 mM NaCl, pH 7.4) was incubated with 5 μg/ml neuramimidase for 4 hours at 37° C.
In order to couple the neuramimidase-treated suPAR to a BIAcore sensor chip, 20 μg/ml suPAR in 10 mM sodium acetate (pH 5.0) was injected for 6 minutes at a flow rate of 5 μl per minute using a carboxymethylated dextran matrix (CM5 sensor chip), thereby immobilising approximately 1,500–2,000 resonance units (RU), which correspond to 1–2 ng suPAR/mm^2. The CM5 sensor chip was preactivated with N-hydroxysuccinimide/N-ethyl-N′-[3-([…])propyl]carbodiimide in accordance with the manufacturer's recommendations.
Surface plasmon resonance sensorgrams (RU versus time) were recorded at a flow rate of 10 μl per min at 5° C. using several different concentrations of the ligand (i.e. the relevant peptide or GFD) in the range from 10 to 1000 nM in running buffer (10 mM HEPES, 150 mM NaCl, 3 mM EDTA (pH 7.4) including 0.005% surfactant P-20).
The sensor chip was regenerated at the end of each run by injection of 0.1 M acetic acid, 0.5 M NaCl.
Data from parallel mock coupled flow cells (subjected to the coupling procedure in the presence of buffer only) served as blank sensorgrams for subtraction of changes in bulk refractive index.
The obtained sensorgrams were analysed by non-linear least squares fitting using BIAevaluation 2.0 software (Pharmacia Biosensor, Uppsala, Sweden) assuming single-site ssociation and dissociation models.

This is an account of results in US7026282B1, “Peptide antagonists of the human urokinase receptor and method for selecting them” (Cancerforskningsfonden AF 1989 (Fonden Til Fremme AF …, priority 1998, dated 2006).

“Also recorded” adds a separate entry of the source. Starred links: 1 amine or outer side, 2 acyl side, 3 side chain; linkers in the order of their positions; H or OH if unused. Non-standard residues stand in square brackets, D forms with d. No end group written: not given here. DMB = N-(2,3-dimethoxybenzyl)glycine, COc1cccc(CN(CC(=O)[*:2])[*:1])c1OC; Gly(N(CH2)2(3-indolyl)) = O=C(O)CNCCc1c[nH]c2ccccc12; 2Nal = N[C@@H](Cc1ccc2ccccc2c1)C(=O)O; AMN = N-(methylnaphthalyl)glycine; Cha = N[C@@H](CC1CCCCC1)C(=O)O; Nme = COCCNCC(=O)O; βAla = NCCC(=O)O

soluble recombinant variant of human uPAR (suPAR) (human), sequence (Q03405 23-299, change not shown): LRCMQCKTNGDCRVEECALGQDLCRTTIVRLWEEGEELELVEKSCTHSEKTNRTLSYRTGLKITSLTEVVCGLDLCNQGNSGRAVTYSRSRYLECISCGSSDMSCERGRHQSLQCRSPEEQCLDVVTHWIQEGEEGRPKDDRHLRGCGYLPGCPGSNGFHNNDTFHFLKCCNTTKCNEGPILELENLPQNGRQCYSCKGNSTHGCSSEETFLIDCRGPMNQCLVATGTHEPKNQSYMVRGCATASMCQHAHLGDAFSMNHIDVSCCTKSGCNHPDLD
T1 sequence (Q03405 23-305 limits assumed): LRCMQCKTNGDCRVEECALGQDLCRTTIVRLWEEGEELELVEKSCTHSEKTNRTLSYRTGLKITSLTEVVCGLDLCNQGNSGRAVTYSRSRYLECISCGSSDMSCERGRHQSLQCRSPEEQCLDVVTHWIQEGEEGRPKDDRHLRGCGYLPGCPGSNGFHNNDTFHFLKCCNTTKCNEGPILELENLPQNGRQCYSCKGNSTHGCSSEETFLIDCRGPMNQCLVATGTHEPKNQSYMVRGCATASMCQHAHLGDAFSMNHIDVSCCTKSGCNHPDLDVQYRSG

As usually defined, the koff is a measure of how fast the partners let go of each other. On to AE100 (peptide), for which, in data set [1], the Relative kdiss (relative to GFD) was determined as 4 and the koff amounted to 0.00056 s⁻¹.

As to “ATF: amino-terminal-fragment (ATF) of human uPA”, in data set [2], the “kdiss (dissociation rate constant, off-rate)” value amounted to 0.00012 s⁻¹ and the Relative kdiss is on record as 0.86.

As for “D-Cha-F-s-r-Cha-L-W-l (D[Cha]F[dS][dR][Cha]LW[dL]) [AE132]”, in data set [2], the “kdiss (dissociation rate constant, off-rate)” value turned out to be 0.00053 s⁻¹ and the Relative kdiss turned out to be 3.8.

In the case of “D-Cha-F-s-r-DMB-f-AMN-MEA (D[Cha]F[dS][dR][DMB][dF][AMN][Nme]) [AE126, peptide-peptoid hybrid (peptomer)]”, in data set [2], the “kdiss (dissociation rate constant, off-rate)” value worked out at 0.00037 s⁻¹; the “dissociation constant compared with other peptides” value was “same order of magnitude as the best of the peptides; also recorded: approximating those of AE105 and AE110”; the Relative kdiss is reported as 2.6.

Take “D-Cha-F-s-r-DMB-f-DMB-l (D[Cha]F[dS][dR][DMB][dF][DMB][dL]) [AE129, peptide-peptoid hybrid (peptomer)]”: in data set [2], the “kdiss (dissociation rate constant, off-rate)” value was 0.00054 s⁻¹ and the Relative kdiss is 3.9.

Take “D-Cha-F-s-r-DMB-f-TRA-MEA (D[Cha]F[dS][dR][DMB][dF][Gly(N(CH2)2(3-indolyl))][Nme]) [AE124, peptide-peptoid hybrid (peptomer)]”: in data set [2], the “kdiss (dissociation rate constant, off-rate)” value is 0.00561 s⁻¹; the “dissociation constant compared with other peptides” value was “same order of magnitude as the best of the peptides”; the Relative kdiss is given as 40.0.

As for “D-Cha-F-s-r-DMLB-f-Bzl-MEA [AE125, peptide-peptoid hybrid (peptomer)]”, in data set [2], the “kdiss (dissociation rate constant, off-rate)” value is 0.00074 s⁻¹; the “dissociation constant compared with other peptides” value was “same order of magnitude as the best of the peptides”; the Relative kdiss was determined as 5.3.

For the molecule “D-Cha-F-s-r-L-L-W-h (D[Cha]F[dS][dR]LLW[dH]) [AE130]”, in data set [2], the “kdiss (dissociation rate constant, off-rate)” value is 0.00051 s⁻¹ and the Relative kdiss is recorded as 3.6.

On to “D-Cha-F-s-r-MEA-DMB-f-AMN (D[Cha]F[dS][dR][Nme][DMB][dF][AMN]) [AE128, peptide-peptoid hybrid (peptomer)]”, for which, in data set [2], the “kdiss (dissociation rate constant, off-rate)” value is “no binding”; the “dissociation constant compared with other peptides” value is “same order of magnitude as the best of the peptides”; the Relative kdiss is on record as >>100.

In the case of “D-Cha-F-s-r-Y-L-Nal-h (D[Cha]F[dS][dR]YLX[dH]; not fully specified (residue 8); printed as D-Cha-F-s-r-Y-L-Nal-h) [AE131]”, in data set [2], the “kdiss (dissociation rate constant, off-rate)” value was found to be 0.00056 s⁻¹ and the Relative kdiss was determined as 4.0.

Consider “DChaFSrYLWS (DXFSRYLWS; D-residues; non-natural residues; cyclised or stapled) [AE106]”, for which, in data set [2], the “kdiss (dissociation rate constant, off-rate)” value was determined as 0.00263 s⁻¹ and the Relative kdiss is recorded as 18.7.

As to “DChaFsRYLWS (DXFSRYLWS; D-residues; non-natural residues; cyclised or stapled) [AE110]”, in data set [2], the “kdiss (dissociation rate constant, off-rate)” value is 0.00028 s⁻¹ and the Relative kdiss is on record as 2.0.

Turning to “DChaFsrGYLWS (D[Cha]F[dS][dR]GYLWS) [AE116]”, in data set [2], the “kdiss (dissociation rate constant, off-rate)” value is on record as “no binding”; the Relative kdiss is recorded as >>100; the “human uPAR binding after introduction of spacing residues” value was “abolished the binding”.

In the case of “DChaFsrβAYLWS (D[Cha]F[dS][dR][βAla]YLWS) [AE117]”, in data set [2], the “kdiss (dissociation rate constant, off-rate)” value is given as “no binding”; the Relative kdiss is reported as >>100; the “human uPAR binding after introduction of spacing residues” value was “abolished the binding”.

With DFFsrYLWS (DFF[dS][dR]YLWS) [AE112], in data set [2], the “kdiss (dissociation rate constant, off-rate)” value came to 0.00181 s⁻¹ and the Relative kdiss came out at 12.9.

On to DNFsrYLWS (DNF[dS][dR]YLWS) [AE113], for which, in data set [2], the “kdiss (dissociation rate constant, off-rate)” value is “no binding” and the Relative kdiss is reported as >>100.

As for DchaFsrYL^1nAS [AE114], in data set [2], the “kdiss (dissociation rate constant, off-rate)” value was determined as 0.00059 s⁻¹ and the Relative kdiss came out at 4.2.

With LNFsQYLWS (LNF[dS]QYLWS) [AE111], in data set [2], the “kdiss (dissociation rate constant, off-rate)” value came out at 0.00105 s⁻¹ and the Relative kdiss is 7.5.

Turning to SLChaFsQYLWS (SL[Cha]F[dS]QYLWS), in data set [2], the “kdiss (dissociation rate constant, off-rate)” value is 0.00349 s⁻¹ and the Relative kdiss is recorded as 24.9.

In the case of SLNFSQYLWS (AE68) [reference compound], in data set [2], the “kdiss (dissociation rate constant, off-rate)” value is 0.0129 s⁻¹ and the Relative kdiss is reported as 92.1.

Regarding “amino-terminal-fragment (ATF) of human uPA (from UniProt P00749 21-155) (ligand)”, in data set [1], the Relative kdiss (relative to GFD) is 0.86 and the koff was 0.00012 s⁻¹.

As for “arFhhYLWS ([dA][dR]F[dH][dH]YLWS) [AE104]”, in data set [2], the “kdiss (dissociation rate constant, off-rate)” value was “no binding” and the Relative kdiss was >>100.

As for “dChaFSrYLWS (DXFSRYLWS; D-residues; non-natural residues; cyclised or stapled) [AE107]”, in data set [2], the “kdiss (dissociation rate constant, off-rate)” value came to 0.00884 s⁻¹ and the Relative kdiss worked out at 63.1.

Consider “dChaFsrYLWs (DXFSRYLWS; not fully specified; D-residues; non-natural residues; cyclised or stapled)”, for which, in data set [2], the “kdiss (dissociation rate constant, off-rate)” value was 0.00068 s⁻¹ and the Relative kdiss was found to be 4.9.

On to “dChaFsrYL^2nAS ([dD][Cha]F[dS][dR]YL[2Nal]S) [AE109]”, for which, in data set [2], the “kdiss (dissociation rate constant, off-rate)” value is 0.00205 s⁻¹ and the Relative kdiss is reported as 14.6.

Consider “eChaFsYYLWS ([dE][Cha]F[dS]YYLWS) [AE115]”, for which, in data set [2], the “kdiss (dissociation rate constant, off-rate)” value amounted to 0.00167 s⁻¹ and the Relative kdiss was 11.9.

Regarding “eChaFsyYLWS ([dE][Cha]F[dS][dY]YLWS) [AE100]”, in data set [2], the “kdiss (dissociation rate constant, off-rate)” value came to 0.00056 s⁻¹ and the Relative kdiss was determined as 4.0.

For “tChaFsrYLWS ([dT][Cha]F[dS][dR]YLWS) [AE108]”, in data set [2], the “kdiss (dissociation rate constant, off-rate)” value came out at 0.00048 s⁻¹ and the Relative kdiss is 3.4.

B1: AE68 (peptide)
peptide: SLNFSQYLWS
With B1, in data set [1], the Relative kdiss (relative to GFD) turned out to be 92.1 and the off-rate (koff) stood at 0.0129 s⁻¹.

B2: AE106 (peptide)
peptide: DXFSRYLWS
modifications: beta-cyclohexyl-L-alanine (Cha) at 2; D-Arg at 5
In the case of B2, in data set [1], the Relative kdiss (relative to GFD) was 18.7 and the koff worked out at 0.00263 s⁻¹.

B3: AE116 (peptide)
peptide: D[Cha]F[dS][dR]GYLWS
modifications: not fully specified
Regarding B3, the Relative kdiss (relative to GFD) in data set [1] was greater than 100.

B4: AE107 (peptide)
peptide: DXFSRYLWS
modifications: D-Asp at 1; beta-cyclohexyl-L-alanine (Cha) at 2; D-Arg at 5
Take B4: in data set [1], the Relative kdiss (relative to GFD) came to 63.1 and the koff came to 0.00884 s⁻¹.

B5: AE117 (peptide)
peptide: D[Cha]F[dS][dR][βAla]YLWS
modifications: not fully specified; printed as DChaFsrβAYLWS
On to B5, for which the Relative kdiss (relative to GFD) in data set [1] was greater than 100.
